Measurements as given in patent US20050037963A1.

Assays:
[1] = molecular target: endogenous FAK of NIH 3T3 cells (mouse) (UniProt P34152); assay: cell-based or functional assay
[2] = molecular target: endogenous FIP200 of NIH 3T3 cells (mouse) (UniProt Q9ESK9); assay: cell-based or functional assay
Chain of endogenous FIP200 of NIH 3T3 cells (mouse) (Q9ESK9 whole entry): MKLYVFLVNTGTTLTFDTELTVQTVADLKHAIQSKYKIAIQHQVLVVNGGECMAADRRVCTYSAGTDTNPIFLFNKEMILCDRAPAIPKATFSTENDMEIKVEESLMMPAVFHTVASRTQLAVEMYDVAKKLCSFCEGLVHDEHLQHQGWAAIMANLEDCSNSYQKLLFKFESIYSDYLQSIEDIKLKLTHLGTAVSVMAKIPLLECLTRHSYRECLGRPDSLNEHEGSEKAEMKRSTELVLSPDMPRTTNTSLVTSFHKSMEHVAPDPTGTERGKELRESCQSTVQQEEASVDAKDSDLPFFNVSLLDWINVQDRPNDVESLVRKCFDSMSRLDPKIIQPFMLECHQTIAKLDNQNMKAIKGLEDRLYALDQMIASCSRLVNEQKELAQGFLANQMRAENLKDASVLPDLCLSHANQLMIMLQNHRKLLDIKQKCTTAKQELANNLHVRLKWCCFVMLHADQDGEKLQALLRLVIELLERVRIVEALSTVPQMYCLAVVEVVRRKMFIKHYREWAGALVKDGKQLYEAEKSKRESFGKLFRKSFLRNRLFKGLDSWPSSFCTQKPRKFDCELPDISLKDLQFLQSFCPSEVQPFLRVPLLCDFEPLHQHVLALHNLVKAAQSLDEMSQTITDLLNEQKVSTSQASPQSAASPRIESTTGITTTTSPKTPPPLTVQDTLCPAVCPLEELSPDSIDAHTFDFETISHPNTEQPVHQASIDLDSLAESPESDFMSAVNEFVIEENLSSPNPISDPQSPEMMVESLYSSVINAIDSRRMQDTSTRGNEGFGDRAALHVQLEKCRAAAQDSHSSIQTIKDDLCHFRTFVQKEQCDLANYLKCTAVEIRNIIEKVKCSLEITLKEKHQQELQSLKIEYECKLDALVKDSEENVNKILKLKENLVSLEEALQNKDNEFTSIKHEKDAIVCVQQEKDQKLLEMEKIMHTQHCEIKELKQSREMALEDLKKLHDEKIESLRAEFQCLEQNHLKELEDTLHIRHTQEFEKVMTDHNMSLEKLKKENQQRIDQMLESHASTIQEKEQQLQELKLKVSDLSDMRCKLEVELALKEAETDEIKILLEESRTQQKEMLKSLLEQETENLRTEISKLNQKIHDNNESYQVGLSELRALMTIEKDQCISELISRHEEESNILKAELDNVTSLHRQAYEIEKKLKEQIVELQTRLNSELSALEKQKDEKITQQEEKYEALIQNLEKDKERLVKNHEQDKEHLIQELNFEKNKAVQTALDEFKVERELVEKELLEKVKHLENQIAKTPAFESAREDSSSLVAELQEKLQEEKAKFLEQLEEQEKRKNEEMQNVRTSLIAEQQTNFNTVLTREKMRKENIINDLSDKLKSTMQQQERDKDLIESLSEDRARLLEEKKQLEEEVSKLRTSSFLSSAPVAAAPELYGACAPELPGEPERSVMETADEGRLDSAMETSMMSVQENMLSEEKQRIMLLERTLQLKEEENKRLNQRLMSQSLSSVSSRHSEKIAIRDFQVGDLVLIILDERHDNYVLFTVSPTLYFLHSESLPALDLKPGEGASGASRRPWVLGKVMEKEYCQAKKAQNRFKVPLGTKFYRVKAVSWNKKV

Chain of endogenous FAK of NIH 3T3 cells (mouse) (P34152 2-1052 limits assumed): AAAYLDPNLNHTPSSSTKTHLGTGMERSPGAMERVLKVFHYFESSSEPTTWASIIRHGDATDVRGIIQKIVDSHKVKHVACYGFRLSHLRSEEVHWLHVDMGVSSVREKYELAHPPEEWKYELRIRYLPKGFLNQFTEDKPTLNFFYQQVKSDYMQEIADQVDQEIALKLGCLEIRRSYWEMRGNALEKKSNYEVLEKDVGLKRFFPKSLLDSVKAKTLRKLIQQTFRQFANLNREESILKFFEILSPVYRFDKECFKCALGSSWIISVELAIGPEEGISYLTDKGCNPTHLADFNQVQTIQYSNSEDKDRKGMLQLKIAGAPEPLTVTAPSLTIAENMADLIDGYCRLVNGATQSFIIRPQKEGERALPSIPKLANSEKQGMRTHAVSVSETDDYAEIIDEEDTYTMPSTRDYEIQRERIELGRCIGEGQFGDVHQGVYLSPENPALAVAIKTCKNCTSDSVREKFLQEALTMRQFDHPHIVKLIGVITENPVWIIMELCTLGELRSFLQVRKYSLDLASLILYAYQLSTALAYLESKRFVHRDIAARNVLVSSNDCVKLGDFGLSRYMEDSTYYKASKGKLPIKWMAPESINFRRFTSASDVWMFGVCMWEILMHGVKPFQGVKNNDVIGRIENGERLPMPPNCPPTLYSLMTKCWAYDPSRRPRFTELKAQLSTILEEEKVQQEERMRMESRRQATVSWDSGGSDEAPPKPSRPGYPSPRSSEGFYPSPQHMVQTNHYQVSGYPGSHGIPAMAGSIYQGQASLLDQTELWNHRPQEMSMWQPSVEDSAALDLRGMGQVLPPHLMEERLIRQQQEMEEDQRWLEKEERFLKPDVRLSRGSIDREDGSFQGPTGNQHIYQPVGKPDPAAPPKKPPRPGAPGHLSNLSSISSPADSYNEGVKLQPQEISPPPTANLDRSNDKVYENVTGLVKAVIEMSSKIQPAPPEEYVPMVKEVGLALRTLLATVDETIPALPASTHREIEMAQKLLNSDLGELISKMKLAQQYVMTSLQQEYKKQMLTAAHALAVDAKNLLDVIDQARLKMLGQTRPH

Row | inhibition of cell spreading on FN (NIH3T3, β-gal cotransfection) [1] | Substance | other results
1 | 50% | Flag-tagged full-length FIP200 (from UniProt Q8TDY2 1-1594) | 
2 | 50% | Flag-tagged MD-FIP (middle domain FIP200, residues 639-1373) (from UniProt Q8TDY2 639-1373) | 
3 | 50% | Flag-tagged NT-FIP (NH2-terminal FIP200, residues 1-638) (from UniProt Q8TDY2 1-638) | 
4 |  | HA-tagged KD^KR (FAK kinase domain, residues 403-672, with the kinase-defective mutation K454 to R) | cells entering S-phase on PLL (BrdU incorporation, NIH3T3) [2]: 30%
5 |  | HA-tagged full-length FIP200 (pKH3-FIP200, residues 1-1591) (from UniProt Q8TDY2 1-1594) | inhibition of cell cycle progression (BrdU incorporation, NIH3T3) [1]: 90%
